Test results: publication PMC7579878, “Unannotated single nucleotide polymorphisms in the TATA box of erythropoiesis genes show in vitro positive involvements in cognitive and mental disorders”

B1: EPOR TATA-like WT (ODN 5) (dsDNA)
DNA 1: CACGTCATCTATTTTTGTCTGCTACG
DNA 2: CGTAGCAGACAAAAATAGATGACGTG
B2: HBZ TATA WT (ODN 3) (dsDNA)
DNA 1: AGCTCCCTGTATATAAGGGGACCCTG
DNA 2: CAGGGTCCCCTTATATACAGGGAGCT
B3: HBB TATA WT (ODN 1, -32C) (dsDNA)
DNA 1: AGGGCTGGGCATAAAAGTCAGGGCAG
DNA 2: CTGCCCTGACTTTTATGCCCAGCCCT
B4: EPOR rs971717705:G (-29A>G, ODN 7) (dsDNA)
DNA 1: CACGTCATCTGTTTTTGTCTGCTACG
DNA 2: CGTAGCAGACAAAAACAGATGACGTG
B5: EPOR rs567946217:G (-31C>G, ODN 9) (dsDNA)
DNA 1: CACGTCATGTATTTTTGTCTGCTACG
DNA 2: CGTAGCAGACAAAAATACATGACGTG
B6: HBB rs34500389:T (-32C>T, ODN 2) (dsDNA)
DNA 1: AGGGCTGGGTATAAAAGTCAGGGCAG
DNA 2: CTGCCCTGACTTTTATACCCAGCCCT
B7: EPOR rs1006576690:A (-27T>A, ODN 6) (dsDNA)
DNA 1: CACGTCATCTATATTTGTCTGCTACG
DNA 2: CGTAGCAGACAAATATAGATGACGTG
B8: HBZ rs113180943:A (-29T>A, ODN 4) (dsDNA)
DNA 1: AGCTCCCTGTAAATAAGGGGACCCTG
DNA 2: CAGGGTCCCCTTATTTACAGGGAGCT

biological target: TATA-binding protein (hTBP) (Homo sapiens, UniProt P20226 1-339); experiment: EMSA (kinetic, kd/ka); EMSA with 32P-labelled 26 bp duplexes; binding buffer, salt, pH and temperature not given in the material; details: protein: recombinant; label: 32P (both strands); blunt
Sequence (P20226 whole entry): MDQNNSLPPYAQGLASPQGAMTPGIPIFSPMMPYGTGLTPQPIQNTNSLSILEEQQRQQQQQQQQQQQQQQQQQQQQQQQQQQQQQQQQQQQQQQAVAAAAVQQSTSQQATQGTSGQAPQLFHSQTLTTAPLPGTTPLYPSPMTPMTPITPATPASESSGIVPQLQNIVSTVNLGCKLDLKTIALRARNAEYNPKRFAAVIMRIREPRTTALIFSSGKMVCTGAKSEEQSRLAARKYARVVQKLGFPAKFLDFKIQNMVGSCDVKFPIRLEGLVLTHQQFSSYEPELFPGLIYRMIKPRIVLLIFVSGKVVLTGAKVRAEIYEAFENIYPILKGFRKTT

Binder | Kd [nM]
B1 | 170 ± 30
B2 | 6
B3 | 50
B4 | 150 ± 30
B5 | 80 ± 10
B6 | 32 ± 3
B7 | 11 ± 3
B8 | 40 ± 20
